From patent US20200299408A1 (Genentech, published 2020)
Positions count from the first letter of the chain named. In names and notes the source's numbering stands. Several values for one entry are separate records, joined by “and”; a condition that tells them apart may be missing. Equal entries are not always repeated.

Assays:
[1] = biological target: T1, HER2 extracellular domain (ECD) (UniProt P04626 23-652, limits assumed); experiment: HER2 binding affinity of the HER2 arm; assay and form of HER2 not stated on the sheet or in the legend
T1 construct: extracellular domain; also called soluble HER2 extracellular domain; HER2 ECD

human HER2 on cells [2] = biological target: T2, human HER2 on cells (human, UniProt P04626 23-1255); experiment: cell-based or functional assay
[3] = biological target: T1, HER2 extracellular domain (ECD); experiment: HER2 KD relative to 4D5 (WT); assay not stated
cyCD3εγ = biological target: T3, cyCD3εγ (cynomolgus monkey); experiment: monovalent binding affinity, method not stated on the sheet
T3 chain 1: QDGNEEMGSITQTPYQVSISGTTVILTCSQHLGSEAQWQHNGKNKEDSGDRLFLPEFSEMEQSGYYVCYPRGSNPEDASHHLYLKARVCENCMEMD
T3 chain 2: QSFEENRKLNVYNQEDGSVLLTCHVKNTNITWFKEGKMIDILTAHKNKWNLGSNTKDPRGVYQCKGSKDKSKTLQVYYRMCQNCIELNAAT

[4] = biological target: T4, single chain human CD3ε-26mer-CD3γ (CD3εγ) (human); experiment: monovalent binding affinity, method not stated on the sheet; column huCD3εγ
T4 construct: also called human CD3εγ
T4 chain: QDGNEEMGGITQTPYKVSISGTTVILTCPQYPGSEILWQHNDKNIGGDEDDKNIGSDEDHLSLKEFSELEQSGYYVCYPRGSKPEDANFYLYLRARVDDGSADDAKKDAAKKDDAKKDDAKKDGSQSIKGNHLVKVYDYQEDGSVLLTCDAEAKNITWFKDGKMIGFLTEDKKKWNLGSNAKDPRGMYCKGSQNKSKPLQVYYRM

[5] = biological target: T4, single chain human CD3ε-26mer-CD3γ …; experiment: Biacore, monovalent KD of the CD3 arm; CD3 antigen not named on the sheet (reactivity hu, cyno)
[6] = biological target: T4, single chain human CD3ε-26mer-CD3γ …; experiment: Biacore, human CD3εγ on chip, antibody in flow-through
E5A = biological target: T5, E5A; experiment: phage ELISA: anti-CD3 antibody coated on the plate, dilution series of M13 phage displaying the CD3εγ variant, anti-M13-HRP, OD A450; [phage] axis 10^-3 to 10^0 without unit
T5 construct: Residue number counts from the N-terminus of CD3ε; also called CD3εγ E5A; CD3 mutant E5A
T5 single chain CD3ε-26mer linker-CD3γ: T4 chain with E5A
Protocol: (§1) This CD3εγ phagemid was used as a template for making single alanine mutations in CD3ε by Kunkel mutagenesis. […] The effect of alanine mutation in CD3εγ on anti-CD3 antibody binding was assessed using a phage ELISA. Each anti-CD3 antibody was immobilized on a NUNC maxisorp plate at 2 μg/ml in PBS buffer overnight at 4° C. Purified phage supernatant displaying a CD3εγ alanine variant (1.0 OD₄₅₀) was added to the plate and allowed to bind at room temperature with shaking for 1 h. After washing, bound phage was detected with anti-M13-HRP (GE Healthcare cat #45-001-419).

E6A = biological target: T6, E6A; experiment: as above
T6 construct: Residue number counts from the N-terminus of CD3ε; also called CD3εγ E6A; CD3 mutant E6A
T6 single chain CD3ε-26mer linker-CD3γ: T4 chain with E6A
Protocol: as §1

G3A = biological target: T7, G3A; experiment: as above
T7 construct: Residue number counts from the N-terminus of CD3ε; also called CD3εγ G3A; CD3 mutant G3A
T7 single chain CD3ε-26mer linker-CD3γ: T4 chain with G3A
Protocol: as §1

N4A = biological target: T8, N4A; experiment: as above
T8 construct: Residue number counts from the N-terminus of CD3ε; also called CD3εγ N4A; CD3 mutant N4A
T8 single chain CD3ε-26mer linker-CD3γ: T4 chain with N4A
Protocol: as §1

[7] = biological target: T4, single chain human CD3ε-26mer-CD3γ …; experiment: Biacore, human CD3εγ on chip, TDB in flow through
Protocol: (§2) Binding affinities for the each of the CD3/CD20 TDBs were tested by Biacore or FACS analysis, as described above for the anti-CD3 antibodies. Briefly, for Biacore binding assays, human CD3εγ was immobilized on Biacore Series S CM5 sensor chip using the amine coupling kit from Biacore and CD3/CD20 TDBs or Fab variants thereof were in the flow through. For FACS binding assays, either Bjab cells (for B cell antigens) or Jurkat cells (for CD3 antigen) were incubated with various concentrations of TDB antibodies at 4° C. for 30 minutes, then cells were washed and incubated with 2nd antibody (anti-huIgG-PE; BD Bioscience) for another 15 minutes, before cells were washed again and ready for FACS analysis.

human CD3 on T cells [8] = biological target: T9, human CD3 on T cells (human, UniProt P07766 22-207); experiment: FACS on Jurkat cells (CD3); EC50 table for the curves of FIGS. 21A-21B; source E. coli
T9 construct: whole, on cells; On cells CD3ε stands in the CD3/TCR complex; also called CD3 antigen; CD3ε
Protocol: as §2

human CD3 on T cells [9] = biological target: T9, human CD3 on T cells; experiment: FACS on Jurkat cells (CD3), anti-huIgG-PE; number printed beside the curve without a quantity name, taken as EC50
Protocol: as §2

human CD3 on T cells [10] = biological target: T9, human CD3 on T cells; experiment: FACS on Jurkat cells, anti-huIgG-PE, MFI/PE; panel 'Jurkat / CD3 arm'
human CD3 on T cells [11] = biological target: T9, human CD3 on T cells; experiment: Scatchard; table headed 'Bivalent Binding Affinity', though its footnote reads 'monovalent binding Kd measured by scatchard'; cells not named
human CD3 on T cells [12] = biological target: T9, human CD3 on T cells; experiment: FACS on Jurkat cells (CD3), anti-huIgG-PE; number printed beside the curve without a quantity name, taken as EC50; remark: listed apart in the source
Protocol: as §2

human CD3 on T cells [13] = biological target: T9, human CD3 on T cells; experiment: Scatchard; table 'Monovalent Binding Affinity'; the partner arm is not given, the TDB is taken from legend paragraph 149, p-1410 and Figure 16; cells not named
human CD3 on T cells [14] = biological target: T9, human CD3 on T cells; experiment: FACS on Jurkat cells (CD3), anti-huIgG-PE; number printed beside the curve without a quantity name, taken as EC50; remark: listed apart in the source
Protocol: as §2

human HER2 on cells [15] = biological target: T2, human HER2 on cells; experiment: KD (nM) box at the right of the FACS panels; method and antigen form are not stated on the sheet; taken as affinity of the HER2 arm, since the three TDBs differ only in it

B1: hu4D5.Y100A (bispecific antibody, V domains shown)
VH 1: not shown
VL 1: not shown
VH 2: EVQLVQSGAEVKKPGASVKVSCKASGYTFTNYYIHWVRQAPGQGLEWIGWIYPGDGNTKYNEKFKGRATLTADTSTSTAYLELSSLRSEDTAVYYCARDSYSNYYFDYWGQGTLVTVSS
VL 2: DIVMTQSPDSLAVSLGERATINCKSSQSLLNSRTRKNYLAWYQQKPGQPPKLLIYWASTRESGVPDRFSGSGSGTDFTLTISSLQAEDVAVYYCTQSFILRTFGQGTKVEIK
notes: not the same molecule as m28, which has the UCHT1v9 arm; also called hu4D5.Y100A-40G5c HER2-TDB
**Q.** Which results are given for B1?
**A.** Kd [1]: 60 nM; EC50 of SKBR3 target cell killing (human HER2 on cells [2]): > 10 µg/mL; KD fold [3]: 120 fold

B2: anti-CD3 clone 40G5c (antibody, V domains shown)
VH: B1 VH 2
VL: B1 VL 2
notes: also called hu40G5c
**Q.** For B2, which Kd (cyCD3εγ) is on record?
**A.** 14 nM

**Q.** What about the Kd [4] of the same binder?
**A.** 12 nM

**Q.** And the Kd [5]?
**A.** 51 nM

**Q.** And the Kd [6]?
**A.** 15 nM

**Q.** And the koff [6]?
**A.** 0.0176 s⁻¹

**Q.** What about the kon [6] of the same binder?
**A.** 1.2e+06 M⁻¹ s⁻¹

**Q.** Does B2 bind (E5A)?
**A.** binds

**Q.** Does B2 bind (E6A)?
**A.** binds

**Q.** Does B2 bind (G3A)?
**A.** binds

**Q.** Does B2 bind (N4A)?
**A.** binds

B3: 40G5c Ecoli (bispecific antibody, V domains shown)
VH 1: EVQLVESGGGLVQPGGSLRLSCAASGYTFTSYNMHWVRQAPGKGLEWVGAIYPGNGDTSYNQKFKGRFTISVDKSKNTLYLQMNSLRAEDTAVYYCARVVYYSNSYWYFDVWGQGTLVTVSS
VL 1: DIQMTQSPSSLSASVGDRVTITCRASSSVSYMHWYQQKPGKAPKPLIYAPSNLASGVPSRFSGSGSGTDFTLTISSLQPEDFATYYCQQWSFNPPTFGQGTKVEIK
VH 2: B1 VH 2
VL 2: B1 VL 2
modifications: E. coli-produced (aglycosylated) full-length knob-into-hole IgG; constant regions are not in the letters.
notes: E. coli material, aglycosylated; also called CD3/CD20 TDB 2H7v16/40G5c produced in E. coli
**Q.** For B3, which Kd [7] is on record?
**A.** 71.5 nM

**Q.** And the koff [7]?
**A.** 0.0256 s⁻¹

**Q.** What about the kon [7] of the same binder?
**A.** 358000 M⁻¹ s⁻¹

**Q.** What about the EC50 (human CD3 on T cells [8]) of the same binder?
**A.** 1.85 µg/mL and ~12 nM

B4: CD3/CD20 TDB 2H7v16/UCHT1v9 (bispecific antibody, human IgG1, V domains shown)
VH 1: B3 VH 1
VL 1: B3 VL 1
VH 2: EVQLVESGGGLVQPGGSLRLSCAASGYSFTGYTMNWVRQAPGKDLEWVALINPYKGVSTYNQKFKDRFTISVDKSKNTAYLQMNSLRAEDTAVYYCARSGYYGDSDWYFDVWGQGTLVTVSS
VL 2: DIQMTQSPSSLSASVGDRVTITCRASQDIRNYLNWYQQKPGKAPKLLIYYTSRLESGVPSRFSGSGSGTDYTLTISSLQPEDFATYYCQQGNTLPWTFGQGTKLELK
notes: also called TDB A
**Q.** What does the source list for B4?
**A.** EC50 (human CD3 on T cells [9]): 0.21 µg/mL and 1.4 nM; EC50 (read off the curve) (human CD3 on T cells [10]): ~0.1 µg/mL; Kd (human CD3 on T cells [11]): 3 nM; EC50 (human CD3 on T cells [12]): 0.09 µg/mL and 0.6 nM; Kd (human CD3 on T cells [13]): 4.2 nM; EC50 (human CD3 on T cells [14]): 0.533 µg/mL

B5: hu4D5.Y100A/UCHT1v9 TDB (bispecific antibody, V domains shown)
VH 1: not shown
VL 1: not shown
VH 2: B4 VH 2
VL 2: B4 VL 2
notes: also called hu4D5.Y100A-TDB
**Q.** Which Kd (human HER2 on cells [15]) does the source give for B5 here?
**A.** 190 nM
